Reference: US20220204580A1 (AstraZeneca / MedImmune, published 2022)
Blank lines part the entries; values can stand above or below the binder they belong to. Numbered stars: 1 amine (or outer) side, 2 acyl side, 3 side chain; on linkers, the order of the positions; unused ones are H or OH. Bridge positions count the residues as written; N and C are the ends. Square brackets hold non-standard residues; d marks the D form. Side chains are listed from the residue outwards. Ends that are not written are not given here. * marks the point of attachment. C18 diacid = O=C(O)CCCCCCCCCCCCCCCCC(=O)*; γGlu = O=C(O)[C@H](CCC(=O)[*:2])N[*:1]; αMeF = C[C@](N)(Cc1ccccc1)C(=O)O; Aib = CC(C)(N)C(=O)O

Assays:
Assay in all cases: cell-based or functional assay
[1] = molecular target: T1, human calcitonin receptor (human, UniProt P30988 25-474)
T1 sequence (looked up): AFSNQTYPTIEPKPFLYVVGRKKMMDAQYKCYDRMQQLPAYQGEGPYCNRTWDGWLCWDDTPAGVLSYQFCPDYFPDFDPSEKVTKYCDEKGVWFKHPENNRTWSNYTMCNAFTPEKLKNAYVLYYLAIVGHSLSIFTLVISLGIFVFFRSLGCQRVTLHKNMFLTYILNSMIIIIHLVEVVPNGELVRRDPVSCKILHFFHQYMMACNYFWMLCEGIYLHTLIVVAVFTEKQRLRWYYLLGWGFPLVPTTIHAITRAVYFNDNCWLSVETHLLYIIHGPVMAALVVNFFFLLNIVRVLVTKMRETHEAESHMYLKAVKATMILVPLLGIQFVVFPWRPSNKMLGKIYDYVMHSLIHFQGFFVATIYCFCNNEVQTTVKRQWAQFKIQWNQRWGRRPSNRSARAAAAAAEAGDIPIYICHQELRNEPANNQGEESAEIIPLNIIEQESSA

[2] = molecular target: T2, human amylin receptor (calcitonin receptor co-expressed with receptor activity modifying protein, RAMP3) (human, UniProt P30988 25-474; O60896 24-148)
T2 sequence (looked up) 1: T1 sequence (looked up)
T2 sequence (looked up) 2: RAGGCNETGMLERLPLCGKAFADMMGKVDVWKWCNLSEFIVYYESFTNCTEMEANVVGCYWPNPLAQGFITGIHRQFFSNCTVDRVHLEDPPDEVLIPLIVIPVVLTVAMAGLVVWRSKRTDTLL

rat calcitonin receptor = molecular target: T3, rat calcitonin receptor (rat, UniProt P32214 25-516)
T3 sequence (looked up): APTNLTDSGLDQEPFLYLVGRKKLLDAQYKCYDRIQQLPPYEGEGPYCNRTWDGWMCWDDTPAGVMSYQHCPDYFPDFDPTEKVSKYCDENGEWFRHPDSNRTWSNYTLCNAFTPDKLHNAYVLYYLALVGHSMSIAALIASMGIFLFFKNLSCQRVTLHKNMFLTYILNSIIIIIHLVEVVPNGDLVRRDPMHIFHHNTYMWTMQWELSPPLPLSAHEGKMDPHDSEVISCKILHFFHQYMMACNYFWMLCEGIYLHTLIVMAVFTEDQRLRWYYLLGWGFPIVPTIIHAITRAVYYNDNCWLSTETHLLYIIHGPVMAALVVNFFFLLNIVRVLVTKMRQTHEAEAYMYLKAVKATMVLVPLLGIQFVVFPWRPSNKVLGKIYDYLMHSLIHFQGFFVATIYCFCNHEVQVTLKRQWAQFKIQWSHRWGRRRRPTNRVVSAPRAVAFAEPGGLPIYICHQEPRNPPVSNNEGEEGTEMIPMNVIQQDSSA

[3] = molecular target: T4, rat amylin receptor (calcitonin receptor co-expressed with receptor activity modifying protein, RAMP3) (rat, UniProt P32214 25-516; Q9JJ73 23-147)
T4 sequence (looked up) 1: T3 sequence (looked up)
T4 sequence (looked up) 2: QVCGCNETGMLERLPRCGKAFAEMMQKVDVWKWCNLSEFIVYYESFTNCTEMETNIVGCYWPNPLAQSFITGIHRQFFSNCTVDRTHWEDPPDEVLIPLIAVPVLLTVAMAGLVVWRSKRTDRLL

B1: Peptide 15 (SEQ ID NO: 15) (peptide)
peptide: K([γGlu-C18 diacid])KCNTATCATQRLANFLRHSSNN[αMeF]GPILPPTEVGSNTY-NH2
modifications: disulfide 3-8; N-terminus assumed
SMILES: CC[C@H](C)[C@H](NC(=O)[C@@H]1CCCN1C(=O)CNC(=O)[C@](C)(Cc1ccccc1)NC(=O)[C@H](CC(N)=O)NC(=O)[C@H](CC(N)=O)NC(=O)[C@H](CO)NC(=O)[C@H](CO)NC(=O)[C@H](Cc1c[nH]cn1)NC(=O)[C@H](CCCNC(=N)N)NC(=O)[C@H](CC(C)C)NC(=O)[C@H](Cc1ccccc1)NC(=O)[C@H](CC(N)=O)NC(=O)[C@H](C)NC(=O)[C@H](CC(C)C)NC(=O)[C@H](CCCNC(=N)N)NC(=O)[C@H](CCC(N)=O)NC(=O)[C@@H](NC(=O)[C@H](C)NC(=O)[C@@H]1CSSC[C@H](NC(=O)[C@H](CCCCN)NC(=O)[C@@H](N)CCCCNC(=O)CC[C@H](NC(=O)CCCCCCCCCCCCCCCCC(=O)O)C(=O)O)C(=O)N[C@@H](CC(N)=O)C(=O)N[C@@H]([C@@H](C)O)C(=O)N[C@@H](C)C(=O)N[C@@H]([C@@H](C)O)C(=O)N1)[C@@H](C)O)C(=O)N[C@@H](CC(C)C)C(=O)N1CCC[C@H]1C(=O)N1CCC[C@H]1C(=O)N[C@H](C(=O)N[C@@H](CCC(=O)O)C(=O)N[C@H](C(=O)NCC(=O)N[C@@H](CO)C(=O)N[C@@H](CC(N)=O)C(=O)N[C@H](C(=O)N[C@@H](Cc1ccc(O)cc1)C(N)=O)[C@@H](C)O)C(C)C)[C@@H](C)O
EC50 (cAMP production) [1]: 5.46 nM
EC50 (cAMP production) [2]: 522 pM
Ratio (EC50 hCTR / EC50 hAMYR3) [2]: 10
EC50 (cAMP production) (rat calcitonin receptor): 1820 pM
EC50 (cAMP production) [3]: 10.3 pM

B4: Peptide 18 (SEQ ID NO: 18) (peptide)
peptide: K([γGlu-γGlu-C18 diacid])CNTATCATQRLANFLRHSSNN[αMeF]GPILPPTEVGSNTY-NH2
modifications: disulfide 2-7
EC50 (cAMP production) [1]: 4.69 nM
EC50 (cAMP production) [2]: 319 pM
Ratio (EC50 hCTR / EC50 hAMYR3) [2]: 15
EC50 (cAMP production) (rat calcitonin receptor): 3090 pM
EC50 (cAMP production) [3]: 16.5 pM

B5: Peptide 3 (SEQ ID NO: 3) (peptide)
peptide: {C18 diacid}-[γGlu]KCNTATCATQRLANFLVHSSNNFGPILPPTNVGSNTY-NH2
modifications: disulfide 3-8
EC50 (cAMP production) [1]: 1.35 nM
EC50 (cAMP production) [2]: 246 pM
Ratio (EC50 hCTR / EC50 hAMYR3) [2]: 5
EC50 (cAMP production) (rat calcitonin receptor): 186 pM
EC50 (cAMP production) [3]: 2.9 pM

Now from value to binder:

EC50 (cAMP production) [1]: 6.05 nM
EC50 (cAMP production) [2]: 656 pM
Ratio (EC50 hCTR / EC50 hAMYR3) [2]: 9.2
EC50 (cAMP production) (rat calcitonin receptor): 1220 pM
EC50 (cAMP production) [3]: 19.5 pM
B2: Peptide 140 (SEQ ID NO: 140) (peptide)
peptide: K([γGlu-C18 diacid])KCNTATCATQRLANFL[Aib]HSSNNFGPILPPTEVGSNTY-NH2
modifications: disulfide 3-8; N-terminus assumed
SMILES: CC[C@H](C)[C@H](NC(=O)[C@@H]1CCCN1C(=O)CNC(=O)[C@H](Cc1ccccc1)NC(=O)[C@H](CC(N)=O)NC(=O)[C@H](CC(N)=O)NC(=O)[C@H](CO)NC(=O)[C@H](CO)NC(=O)[C@H](Cc1c[nH]cn1)NC(=O)C(C)(C)NC(=O)[C@H](CC(C)C)NC(=O)[C@H](Cc1ccccc1)NC(=O)[C@H](CC(N)=O)NC(=O)[C@H](C)NC(=O)[C@H](CC(C)C)NC(=O)[C@H](CCCNC(=N)N)NC(=O)[C@H](CCC(N)=O)NC(=O)[C@@H](NC(=O)[C@H](C)NC(=O)[C@@H]1CSSC[C@H](NC(=O)[C@H](CCCCN)NC(=O)[C@@H](N)CCCCNC(=O)CC[C@H](NC(=O)CCCCCCCCCCCCCCCCC(=O)O)C(=O)O)C(=O)N[C@@H](CC(N)=O)C(=O)N[C@@H]([C@@H](C)O)C(=O)N[C@@H](C)C(=O)N[C@@H]([C@@H](C)O)C(=O)N1)[C@@H](C)O)C(=O)N[C@@H](CC(C)C)C(=O)N1CCC[C@H]1C(=O)N1CCC[C@H]1C(=O)N[C@H](C(=O)N[C@@H](CCC(=O)O)C(=O)N[C@H](C(=O)NCC(=O)N[C@@H](CO)C(=O)N[C@@H](CC(N)=O)C(=O)N[C@H](C(=O)N[C@@H](Cc1ccc(O)cc1)C(N)=O)[C@@H](C)O)C(C)C)[C@@H](C)O

EC50 (cAMP production) [1]: 5.75 nM
EC50 (cAMP production) [2]: 553 pM
Ratio (EC50 hCTR / EC50 hAMYR3) [2]: 10.4
EC50 (cAMP production) (rat calcitonin receptor): 2870 pM
EC50 (cAMP production) [3]: 11.2 pM
B3: Peptide 129 (SEQ ID NO: 129) (peptide)
peptide: K([γGlu-C18 diacid])KCNTATCATQRLANFL[Aib]HSSNNFGPILPPTNVGSNTY-NH2
modifications: disulfide 3-8; N-terminus assumed
SMILES: CC[C@H](C)[C@H](NC(=O)[C@@H]1CCCN1C(=O)CNC(=O)[C@H](Cc1ccccc1)NC(=O)[C@H](CC(N)=O)NC(=O)[C@H](CC(N)=O)NC(=O)[C@H](CO)NC(=O)[C@H](CO)NC(=O)[C@H](Cc1c[nH]cn1)NC(=O)C(C)(C)NC(=O)[C@H](CC(C)C)NC(=O)[C@H](Cc1ccccc1)NC(=O)[C@H](CC(N)=O)NC(=O)[C@H](C)NC(=O)[C@H](CC(C)C)NC(=O)[C@H](CCCNC(=N)N)NC(=O)[C@H](CCC(N)=O)NC(=O)[C@@H](NC(=O)[C@H](C)NC(=O)[C@@H]1CSSC[C@H](NC(=O)[C@H](CCCCN)NC(=O)[C@@H](N)CCCCNC(=O)CC[C@H](NC(=O)CCCCCCCCCCCCCCCCC(=O)O)C(=O)O)C(=O)N[C@@H](CC(N)=O)C(=O)N[C@@H]([C@@H](C)O)C(=O)N[C@@H](C)C(=O)N[C@@H]([C@@H](C)O)C(=O)N1)[C@@H](C)O)C(=O)N[C@@H](CC(C)C)C(=O)N1CCC[C@H]1C(=O)N1CCC[C@H]1C(=O)N[C@H](C(=O)N[C@@H](CC(N)=O)C(=O)N[C@H](C(=O)NCC(=O)N[C@@H](CO)C(=O)N[C@@H](CC(N)=O)C(=O)N[C@H](C(=O)N[C@@H](Cc1ccc(O)cc1)C(N)=O)[C@@H](C)O)C(C)C)[C@@H](C)O

EC50 (cAMP production) [1]: 1.2 nM
EC50 (cAMP production) [2]: 130 pM
Ratio (EC50 hCTR / EC50 hAMYR3) [2]: 9.2
EC50 (cAMP production) (rat calcitonin receptor): 522 pM
EC50 (cAMP production) [3]: 5.6 pM
B6: Peptide 149 (SEQ ID NO: 149) (peptide)
peptide: K([γGlu-C18 diacid])CNTATCATQRLANFL[Aib]HSSNNFGPILPPTNVGSNTY-NH2
modifications: disulfide 2-7; N-terminus assumed
SMILES: CC[C@H](C)[C@H](NC(=O)[C@@H]1CCCN1C(=O)CNC(=O)[C@H](Cc1ccccc1)NC(=O)[C@H](CC(N)=O)NC(=O)[C@H](CC(N)=O)NC(=O)[C@H](CO)NC(=O)[C@H](CO)NC(=O)[C@H](Cc1c[nH]cn1)NC(=O)C(C)(C)NC(=O)[C@H](CC(C)C)NC(=O)[C@H](Cc1ccccc1)NC(=O)[C@H](CC(N)=O)NC(=O)[C@H](C)NC(=O)[C@H](CC(C)C)NC(=O)[C@H](CCCNC(=N)N)NC(=O)[C@H](CCC(N)=O)NC(=O)[C@@H](NC(=O)[C@H](C)NC(=O)[C@@H]1CSSC[C@H](NC(=O)[C@@H](N)CCCCNC(=O)CC[C@H](NC(=O)CCCCCCCCCCCCCCCCC(=O)O)C(=O)O)C(=O)N[C@@H](CC(N)=O)C(=O)N[C@@H]([C@@H](C)O)C(=O)N[C@@H](C)C(=O)N[C@@H]([C@@H](C)O)C(=O)N1)[C@@H](C)O)C(=O)N[C@@H](CC(C)C)C(=O)N1CCC[C@H]1C(=O)N1CCC[C@H]1C(=O)N[C@H](C(=O)N[C@@H](CC(N)=O)C(=O)N[C@H](C(=O)NCC(=O)N[C@@H](CO)C(=O)N[C@@H](CC(N)=O)C(=O)N[C@H](C(=O)N[C@@H](Cc1ccc(O)cc1)C(N)=O)[C@@H](C)O)C(C)C)[C@@H](C)O
